Source: the supplement of paper PMC9112550, “Optimization of the antimicrobial peptide Bac7 by deep mutational scanning” (BMC Biology, 2022)

Tested on: Escherichia coli TOP10
Experiment: shrunken log2 fold change of peptide-encoding DNA abundance (4.5 h post-induction vs induction); higher = less antimicrobial activity (less host growth inhibition)
Settings: time post-induction: 4.5 h; library: site-saturation at positions 5, 18, 19, 20
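Further: peptides expressed intracellularly from a pBAD plasmid library in pooled LB shake-flask culture, induced with 0.3% L-arabinose, DNA abundance read by NGS, three biological replicates, DESeq2 with apeglm shrinkage.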

Sequence	shrunken log2 fold change
RRIRLRPPRLPRPRPRPERNPRP	0.129
RRIRRRPPRLPRPRPRPALNPRP	0.248
RRIRIRPPRLPRPRPRPEKYPRP	-0.423
RRIRIRPPRLPRPRPRPALFPRP	-0.139
RRIRMRPPRLPRPRPRPVYRPRP	-0.174
RRIRFRPPRLPRPRPRPSFTPRP	0.587
RRIRKRPPRLPRPRPRPTFEPRP	0.312
RRIRTRPPRLPRPRPRPRLPPRP	0.119
RRIRERPPRLPRPRPRPEFGPRP	-0.171
RRIRKRPPRLPRPRPRPLPYPRP	-0.0627
RRIRDRPPRLPRPRPRPVYFPRP	-0.447
RRIRGRPPRLPRPRPRPPYSPRP	-0.084
RRIRNRPPRLPRPRPRPNIDPRP	-0.936
RRIRFRPPRLPRPRPRPHMVPRP	-0.809
RRIRARPPRLPRPRPRPQMGPRP	-0.0713
RRIRGRPPRLPRPRPRPLDIPRP	-0.0476
RRIRGRPPRLPRPRPRPFSHPRP	-0.153
RRIRPRPPRLPRPRPRPNMKPRP	-0.52
RRIRQRPPRLPRPRPRPPYFPRP	0.245
RRIRFRPPRLPRPRPRPCFFPRP	-0.378
RRIRTRPPRLPRPRPRPPKSPRP	0.556
RRIRIRPPRLPRPRPRPCVAPRP	-0.288

Sequence	shrunken log2 fold change
RRIRNRPPRLPRPRPRPPQDPRP	0.0281
RRIRYRPPRLPRPRPRPWPGPRP	-0.15
RRIRNRPPRLPRPRPRPTFLPRP	-0.272
RRIRHRPPRLPRPRPRPDFMPRP	-0.0635
RRIRERPPRLPRPRPRPEHLPRP	0.0163
RRIRCRPPRLPRPRPRPKKMPRP	0.169
RRIRARPPRLPRPRPRPNYDPRP	-0.36
RRIRCRPPRLPRPRPRPQTNPRP	-0.374
RRIRQRPPRLPRPRPRPEHCPRP	-0.199
RRIRCRPPRLPRPRPRPAAPPRP	0.668
RRIRPRPPRLPRPRPRPVGNPRP	-0.0903
RRIRTRPPRLPRPRPRPTSVPRP	0.0486
RRIRFRPPRLPRPRPRPHSSPRP	-0.194
RRIRGRPPRLPRPRPRPYGIPRP	-0.165
RRIRERPPRLPRPRPRPELFPRP	0.201
RRIRCRPPRLPRPRPRPLRVPRP	0.0985
RRIRPRPPRLPRPRPRPITWPRP	-0.0578
RRIRERPPRLPRPRPRPWDGPRP	0.421
RRIRGRPPRLPRPRPRPFRLPRP	-0.194
RRIRLRPPRLPRPRPRPMGAPRP	0.316
RRIRGRPPRLPRPRPRPKTNPRP	0.779
RRIRMRPPRLPRPRPRPPYNPRP	-0.575

Sequence	shrunken log2 fold change
RRIRRRPPRLPRPRPRPKVCPRP	0.0559
RRIRERPPRLPRPRPRPNCNPRP	-0.848
RRIRNRPPRLPRPRPRPMGDPRP	-0.00663
RRIRIRPPRLPRPRPRPLCCPRP	-0.317
RRIRERPPRLPRPRPRPNFAPRP	0.387
RRIRGRPPRLPRPRPRPKGMPRP	0.442
RRIRKRPPRLPRPRPRPAKLPRP	0.446
RRIRARPPRLPRPRPRPKMRPRP	1.64
RRIRVRPPRLPRPRPRPLLDPRP	0.157
RRIRPRPPRLPRPRPRPRRFPRP	0.0399
RRIRDRPPRLPRPRPRPKRFPRP	-0.017
RRIRHRPPRLPRPRPRPHEEPRP	-0.206
RRIRWRPPRLPRPRPRPSPTPRP	0.0554
RRIRPRPPRLPRPRPRPWHMPRP	-0.0632
RRIRRRPPRLPRPRPRPYPFPRP	-0.238
RRIRIRPPRLPRPRPRPNNAPRP	-0.444
RRIRFRPPRLPRPRPRPYMIPRP	-0.59
RRIRIRPPRLPRPRPRPDDCPRP	-0.271
RRIRKRPPRLPRPRPRPGADPRP	0.709
RRIRHRPPRLPRPRPRPFKTPRP	-0.256
RRIRDRPPRLPRPRPRPFWQPRP	0.0546
RRIRARPPRLPRPRPRPQYNPRP	-0.334

Sequence	shrunken log2 fold change
RRIRPRPPRLPRPRPRPGAMPRP	0.454
RRIRHRPPRLPRPRPRPLVFPRP	-0.29
RRIRRRPPRLPRPRPRPYHGPRP	-0.169
RRIRNRPPRLPRPRPRPWGFPRP	-0.103
RRIRGRPPRLPRPRPRPFELPRP	0.0951
RRIRARPPRLPRPRPRPYFAPRP	-0.201
RRIRKRPPRLPRPRPRPLFMPRP	-0.0207
RRIRWRPPRLPRPRPRPLVGPRP	0.282
RRIRNRPPRLPRPRPRPCDPPRP	-0.114
RRIRWRPPRLPRPRPRPVQFPRP	0.0316
RRIRSRPPRLPRPRPRPTECPRP	-0.00271
RRIRCRPPRLPRPRPRPIILPRP	-0.354
RRIRLRPPRLPRPRPRPMYKPRP	-0.44
RRIRERPPRLPRPRPRPEGHPRP	0.11
RRIRERPPRLPRPRPRPCVWPRP	0.0291
RRIRWRPPRLPRPRPRPYHIPRP	-0.96
RRIRRRPPRLPRPRPRPTFLPRP	0.115
RRIRMRPPRLPRPRPRPCMEPRP	0.112
RRIRYRPPRLPRPRPRPLKFPRP	-0.42
RRIRMRPPRLPRPRPRPYGIPRP	-0.0497
RRIRLRPPRLPRPRPRPSGLPRP	-0.429
RRIRIRPPRLPRPRPRPNFEPRP	-0.218

Sequence	shrunken log2 fold change
RRIRQRPPRLPRPRPRPYYEPRP	-0.172
RRIRQRPPRLPRPRPRPWPQPRP	-0.0188
RRIRNRPPRLPRPRPRPMHPPRP	-0.212
RRIRGRPPRLPRPRPRPMAEPRP	1.73
RRIRKRPPRLPRPRPRPDGWPRP	0.152
RRIRHRPPRLPRPRPRPQHTPRP	-0.386
RRIRTRPPRLPRPRPRPMKKPRP	-0.115
RRIRERPPRLPRPRPRPGPWPRP	0.186
RRIRSRPPRLPRPRPRPTEGPRP	0.139
RRIRGRPPRLPRPRPRPMGWPRP	0.967
RRIRKRPPRLPRPRPRPCCEPRP	0.638
RRIRGRPPRLPRPRPRPYRQPRP	-0.401
RRIRGRPPRLPRPRPRPGFIPRP	0.0369
RRIRVRPPRLPRPRPRPLIGPRP	0.0681
RRIRCRPPRLPRPRPRPFSAPRP	-0.565
RRIRHRPPRLPRPRPRPTDAPRP	0.0615
RRIRFRPPRLPRPRPRPTGNPRP	-0.245
RRIRWRPPRLPRPRPRPKVFPRP	-0.00123
RRIRQRPPRLPRPRPRPIFAPRP	0.146
RRIRGRPPRLPRPRPRPEMIPRP	1.92
RRIRYRPPRLPRPRPRPWRDPRP	-0.0075
